± gives the standard deviation of the averaged measurements.

A short description of the series: total protein half-life in vivo (active degradation + dilution); higher = more stable protein.
Where [1] appears, read: E. coli NCM3722 delta-clpP, growth: N-lim chemostat, doubling time 6 h.
[2] abbreviates: E. coli NCM3722 delta-hslV, growth: N-lim chemostat, doubling time 6 h.
Where [3] appears, read: E. coli NCM3722 delta-lon, growth: N-lim chemostat, doubling time 6 h.
Setting [4] is: E. coli NCM3722 delta-smpB, growth: N-lim chemostat, doubling time 6 h.
The mark [5] stands for this setting: wild type E. coli NCM3722, growth: C-lim chemostat, doubling time 3 h.
Setting [6] is: wild type E. coli NCM3722, growth: C-lim chemostat, doubling time 6 h.
Setting [7] is: wild type E. coli NCM3722, growth: C-lim chemostat, doubling time 12 h.
The mark [8] stands for this setting: wild type E. coli NCM3722, growth: N-lim chemostat, doubling time 6 h.
The mark [9] stands for this setting: wild type E. coli NCM3722, growth: N-lim chemostat, doubling time 12 h.
The mark [10] stands for this setting: wild type E. coli NCM3722, growth: P-lim chemostat, doubling time 6 h.
Setting [11] is: wild type E. coli NCM3722, growth: P-lim chemostat, doubling time 12 h.
Setting [12] is: E. coli NCM3722 delta-clpP delta-lon delta-hslV, growth: N-lim chemostat, doubling time 6 h.

As for “MKKALQVAMFSLFTVIGFNAQANEHHHETMSEAQPQVISATGVVKGIDLESKKITIHHDPIAAVNWPEMTMRFTITPQTKMSEIKTGDKVAFNFVQQGNLSLLQDIKVSQ”, the “total protein half-life in vivo” value under setting [1] is 2.72 h; the “total protein half-life in vivo” value under setting [2] amounted to 5.07 ± 1 h; the “total protein half-life in vivo” value under setting [3] is 5.07 ± 0.12 h; the “total protein half-life in vivo” value under setting [4] turned out to be 4.22 h; the “total protein half-life in vivo” value under setting [5] amounted to 2.8 h; the “total protein half-life in vivo” value under setting [6] stood at 4.69 h. The “total protein half-life in vivo” value under setting [7] was 6.31 ± 4.1 h; the “total protein half-life in vivo” value under setting [8] was 4.84 ± 0.35 h; the “total protein half-life in vivo” value under setting [9] worked out at 7.67 ± 1.3 h; the “total protein half-life in vivo” value under setting [10] came out at 4.39 ± 1 h; the “total protein half-life in vivo” value under setting [11] is 7.41 ± 1.9 h.

For “MFLIITRDTMFFTAMKNILSKGNVVHIQNEEEIDVMLHQNAFVIIDTLMNNVFHSNFLTQIERLKPVHVIIFSPFNIKRCLGKVPVTFVPRTITIIDFVALINGSYCSVPEAAVSLSRKQHQVLSCIANQMTTEDILEKLKISLKTFYCHKHNIMMILNLKRINELVRHQHIDYLV”, the “total protein half-life in vivo” value runs as follows: under setting [12], 3.86 ± 0.062 h; under setting [1], 3.81 h; under setting [2], 3.24 ± 0.28 h; under setting [3], 3.74 ± 0.092 h; under setting [4], 3.036 ± 0.0077 h; under setting [8], 2.94 ± 0.13 h. Also, the “total protein half-life in vivo” value runs as follows: under setting [9], 8.12 h; under setting [11], 4.78 h.

With “MGKTNDWLDFDQLAEEKVRDALKPPSMYKVILVNDDYTPMEFVIDVLQKFFSYDVERATQLMLAVHYQGKAICGVFTAEVAETKVAMVNKYARENEHPLLCTLEKA [P0A8Q6]”, the “total protein half-life in vivo” value is 5.9 ± 0.35 h under setting [12]; 0.855 ± 0.013 h under setting [2]; 1.05 h under setting [3]; 0.522 h under setting [5]; 0.628 h under setting [6]; 0.456 h under setting [7]. Also, the “total protein half-life in vivo” value under setting [11] came out at 0.869 h.

“MSTDNKQSLPAITLAAIGVVYGDIGTSPLYTLRECLSGQFGFGVERDAVFGFLSLIFWLLIFVVSIKYLTFVMRADNAGEGGILTLMSLAGRNTSARTTSMLVIMGLIGGSFFYGEVVITPAISVMSAIEGLEIVAPQLDTWIVPLSIIVLTLLFMIQKHGTAMVGKLFAPIMLTWFLILAGLGLRSIIANPEVLHALNPMWAVHFFLEYKTVSFIALGAVVLSITGVEALYADMGHFGKFPIRLAWFTVVLPSLTLNYFGQGALLLKNPEAIKNPFFLLAPDWALIPLLIIAALATVIASQAVISGVFSLTRQAVRLGYLSPMRIIHTSEMESGQIYIPFVNWMLYVAVVIVIVSFEHSSNLAAAYGIAVTGTMVLTSILSTTVARQNWHWNKYFVALILIAFLCVDIPLFTANLDKLLSGGWLPLSLGTVMFIVMTTWKSERFRLLRRMHEHGNSLEAMIASLEKSPPVRVPGTAVYMSRAINVIPFALMHNLKHNKVLHERVILLTLRTEDAPYVHNVRRVQIEQLSPTFWRVVASYGWRETPNVEEVFHRCGLEGLSCRMMETSFFMSHESLILGKRPWYLRLRGKLYLLLQRNALRAPDQFEIPPNRVIELGTQVEI”: the “total protein half-life in vivo” value was determined as 7.06 ± 1.1 h under setting [12]; 6.21 h under setting [2]; 6.28 ± 0.53 h under setting [3]; 5.9 ± 0.4 h under setting [4]; 6.79 ± 0.6 h under setting [6]; 14.2 ± 1.2 h under setting [7]. The “total protein half-life in vivo” value was determined as 6.28 ± 1 h under setting [8], 12.17 ± 0.096 h under setting [9], 6.43 ± 0.26 h under setting [10] and 12.6 ± 0.69 h under setting [11].

“MTQFTQNTAMPSSLWQYWRGLSGWNFYFLVKFGLLWAGYLNFHPLLNLVFAAFLLMPLPRYSLHRLRHWIALPIGFALFWHDTWLPGPESIMSQGSQVAGFSTDYLIDLVTRFINWQMIGAIFVLLVAWLFLSQWIRITVFVVAILLWLNVLTLAGPSFSLWPAGQPTTTVTTTGGNAAATVAATGGAPVVGDMPAQTAPPTTANLNAWLNNFYNAEAKRKSTFPSSLPADAQPFELLVINICSLSWSDIEAAGLMSHPLWSHFDIEFKNFNSATSYSGPAAIRLLRASCGQTSHTNLYQPANNDCYLFDNLSKLGFTQHLMMGHNGQFGGFLKEVRENGGMQSELMDQTNLPVILLGFDGSPVYDDTAVLNRWLDVTEKDKNSRSATFYNTLPLHDGNHYPGVSKTADYKARAQKFFDELDAFFTELEKSGRKVMVVVVPEHGGALKGDRMQVSGLRDIPSPSITDVPVGVKFFGMKAPHQGAPIVIEQPSSFLAISDLVVRVLDGKIFTEDNVDWKKLTSGLPQTAPVSENSNAVVIQYQDKPYVRLNGGDWVPYPQ”: the “total protein half-life in vivo” value by setting is: under setting [12], 3.61 ± 0.11 h; under setting [1], 4.03 ± 0.34 h; under setting [2], 2.98 ± 1.2 h; under setting [3], 3.68 ± 0.32 h; under setting [4], 3.66 ± 0.32 h; under setting [5], 2.602 ± 0.019 h. For the same sequence, the “total protein half-life in vivo” value under setting [6] was found to be 4.28 ± 0.59 h; the “total protein half-life in vivo” value under setting [7] was found to be 8.3 ± 0.53 h; the “total protein half-life in vivo” value under setting [8] came out at 4.05 ± 0.25 h; the “total protein half-life in vivo” value under setting [9] is 6.43 ± 1.3 h; the “total protein half-life in vivo” value under setting [10] turned out to be 3.91 ± 0.42 h; the “total protein half-life in vivo” value under setting [11] was 6.54 ± 0.083 h.

Regarding “MKLNIFTKSMIGMGLVCSALPALAMEAWNNQQGGNKYQVIFDGKIYENAWWVSSTNCPGKAKANDATNPWRLKRTATAAEISQFGNTLSCEKSGSSSSSNSNTPASNTPANGGSATPAQGTVPSNSSVVAWNKQQGGQTWYVVFNGAVYKNAWWVASSNCPGDAKSNDASNPWRYVRAATATEISETSNPQSCTSAPQPSPDVKPAPDVKPAPDVQPAPADKSNDNYAVVAWKGQEGSSTWYVIYNGGIYKNAWWVGAANCPGDAKENDASNPWRYVRAATATEISQYGNPGSCSVKPDNNGGAVTPVDPTPETPVTPTPDNSEPSTPADSVNDYSLQAWSGQEGSEIYHVIFNGNVYKNAWWVGSKDCPRGTSAENSNNPWRLERTATAAELSQYGNPTTCEIDNGGVIVADGFQASKAYSADSIVDYNDAHYKTSVDQDAWGFVPGGDNPWKKYEPAKAWSASTVYVKGDRVVVDGQAYEALFWTQSDNPALVANQNATGSNSRPWKPLGKAQSYSNEELNNAPQFNPETLYASDTLIRFNGVNYISQSKVQKVSPSDSNPWRVFVDWTGTKERVGTPKKAWPKHVYAPYVDFTLNTIPDLAALAKNHNVNHFTLAFVVSKDANTCLPTWGTAYGMQNYAQYSKIKALREAGGDVMLSIGGANNAPLAASCKNVDDLMQHYYDIVDNLNLKVLDFDIEGTWVADQASIERRNLAVKKVQDKWKSEGKDIAIWYTLPILPTGLTPEGMNVLSDAKAKGVELAGVNVMTMDYGNAICQSANTEGQNIHGKCATSAIANLHSQLKGLHPNKSDAEIDAMMGTTPMVGVNDVQGEVFYLSDARLVMQDAQKRNLGMVGIWSIARDLPGGTNLSPEFHGLTKEQAPKYAFSEIFAPFTKQ”, the “total protein half-life in vivo” value runs as follows: under setting [12], 4.89 ± 0.41 h; under setting [1], 7.07 ± 0.34 h; under setting [2], 5.22 ± 1.2 h; under setting [4], 5.97 ± 0.68 h; under setting [6], 5.72 h; under setting [7], 10.9 ± 1.9 h. The “total protein half-life in vivo” value under setting [8] was 5.87 ± 0.36 h, the “total protein half-life in vivo” value under setting [9] was found to be 12.9 ± 0.98 h and the “total protein half-life in vivo” value under setting [10] amounted to 6.31 ± 0.59 h.

For “MIIRDENYFTDKYELTRTHSEVLEAVKVVKPGKTLDLGCGNGRNSLYLAANGYDVDAWDKNAMSIANVERIKSIENLDNLHTRVVDLNNLTFDRQYDFILSTVVLMFLEAKTIPGLIANMQRCTKPGGYNLIVAAMDTADYPCTVGFPFAFKEGELRRYYEGWERVKYNEDVGELHRTDANGNRIKLRFATMLARKK”, the “total protein half-life in vivo” value came to 5.25 ± 0.98 h under setting [12]; 4.08 ± 0.48 h under setting [1]; 4.13 ± 0.29 h under setting [2]; 5.98 ± 0.65 h under setting [3]; 3.94 ± 0.12 h under setting [4]; 2.93 ± 0.1 h under setting [5]. Moreover, the “total protein half-life in vivo” value worked out at 5.19 ± 0.19 h under setting [6]; 8.23 ± 1.5 h under setting [7]; 4.09 ± 0.12 h under setting [8]; 6.9 ± 0.16 h under setting [9]; 6.01 ± 0.67 h under setting [10]; 11 ± 0.36 h under setting [11].

These data come from the supplement of paper PMC11246515.
